Here are results for 167 variants from the Human Domainome abundance scans (Beltran et al. 2025).

± gives the uncertainty stated by the source.

Sequences and labels used below:
B1: Protein piccolo, residues 1058 to 1114; numbered along this chain, Q9Y6V0 (parent)
chain: TCPLCKTELNIGSKDPPNFNTCTECKNQVCNLCGFNPTPHLTEIQEWLCLNCQTQRA
B2: Chromodomain-helicase-DNA-binding protein 4, residues 444 to 496; numbered along this chain, Q14839 (parent)
chain: EDDHHMEFCRVCKDGGELLCCDTCPSSYHIHCLNPPLPEIPNGEWLCPRCTCP

One series covers variants of B1. Briefly: abundance fitness (aPCA) (normalised: wild type 0, dead -1); higher = more abundant; growth selection in yeast, the domain comes from the species named. Particulars: Homo sapiens.
Turning to H40W, the abundance fitness was -0.206 ± 0.13.

For the variant P17E, the abundance fitness is 0.137 ± 0.15.

For the variant P17R, the abundance fitness was -0.106 ± 0.12.

For the variant T54E, the abundance fitness is 0.231 ± 0.17.

On to W47Q, for which the abundance fitness is -0.09 ± 0.19.

With C33L, the abundance fitness is -0.819 ± 0.089.

In the case of C33E, the abundance fitness was -0.349 ± 0.13.

Regarding C2D, the abundance fitness is -0.536 ± 0.18.

Turning to N10L, the abundance fitness is -0.204 ± 0.08.

For Q45I, the abundance fitness was -0.047 ± 0.19.

Take Q45P: the abundance fitness was -0.141 ± 0.18.

As for L48I, the abundance fitness is -0.105 ± 0.22.

E24D: the abundance fitness turned out to be 0.008 ± 0.14.

Consider E24G, for which the abundance fitness was -0.012 ± 0.073.

For L50I, the abundance fitness is -0.173 ± 0.23.

For P3D, the abundance fitness turned out to be 0.095 ± 0.18.

For the variant S13H, the abundance fitness is -0.079 ± 0.21.

As to S13A, the abundance fitness is -0.37 ± 0.095.

As for T23C, the abundance fitness was 0.041 ± 0.12.

Regarding G34N, the abundance fitness is -0.925 ± 0.35.

With G34W, the abundance fitness is -0.242 ± 0.12.

For Q53F, the abundance fitness was -0.275 ± 0.26.

Take E43Y: the abundance fitness is -0.443 ± 0.32.

E43V: the abundance fitness was -0.202 ± 0.11.

Regarding E43S, the abundance fitness is -0.2 ± 0.12.

On to E43N, for which the abundance fitness was -0.123 ± 0.38.

Take N20Q: the abundance fitness turned out to be 0.094 ± 0.15.

Consider N20V, for which the abundance fitness turned out to be 0.07 ± 0.097.

With N20S, the abundance fitness was -0.082 ± 0.093.

Take T42I: the abundance fitness was -0.105 ± 0.18.

Regarding K26R, the abundance fitness worked out at 0.072 ± 0.11.

In the case of F19V, the abundance fitness was -0.211 ± 0.12.

For the variant F19W, the abundance fitness was -0.083 ± 0.11.

On to C30E, for which the abundance fitness was -0.532 ± 0.16.

On to L4S, for which the abundance fitness is 0.006 ± 0.092.

Consider L4T, for which the abundance fitness was -0.051 ± 0.15.

For the variant L9A, the abundance fitness turned out to be 0.032 ± 0.086.

With L32Y, the abundance fitness was -0.218 ± 0.17.

On to L32N, for which the abundance fitness is -0.176 ± 0.24.

As for P39D, the abundance fitness is -0.117 ± 0.18.

For the variant Q28G, the abundance fitness is 0.038 ± 0.1.

Take K14C: the abundance fitness was -0.643 ± 0.13.

With P16T, the abundance fitness is -0.37 ± 0.15.

On to P16L, for which the abundance fitness is -0.095 ± 0.091.

C5W: the abundance fitness was -0.96 ± 0.15.

Take C49D: the abundance fitness is -0.597 ± 0.2.

The variants in the next series derive from B2. The series is described as above. Particulars: Homo sapiens.
Consider P53H, for which the abundance fitness was found to be 0.616 ± 0.46.

On to P53S, for which the abundance fitness was -0.455 ± 0.2.

For the variant L46Q, the abundance fitness is -0.019 ± 0.053.

As for L46P, the abundance fitness is -0.426 ± 0.044.

On to L46D, for which the abundance fitness was -0.252 ± 0.084.

For L46K, the abundance fitness is 0.079 ± 0.061.

Turning to L46Y, the abundance fitness was -0.061 ± 0.07.

With L46W, the abundance fitness was -0.266 ± 0.064.

As to L46I, the abundance fitness is -0.012 ± 0.063.

As for L46N, the abundance fitness was found to be 0.211 ± 0.066.

Consider L46V, for which the abundance fitness was 0.106 ± 0.061.

For L46E, the abundance fitness is -0.092 ± 0.054.

As to L46A, the abundance fitness is -0.033 ± 0.04.

On to L46T, for which the abundance fitness is -0.02 ± 0.047.

Take L46R: the abundance fitness came to 0.008 ± 0.046.

P48S: the abundance fitness was -0.21 ± 0.045.

Consider P48Y, for which the abundance fitness is -0.567 ± 0.06.

For the variant P48V, the abundance fitness was -0.504 ± 0.051.

For P48N, the abundance fitness was -0.54 ± 0.081.

P48A: the abundance fitness was -0.155 ± 0.046.

For the variant P48R, the abundance fitness was -0.352 ± 0.042.

Regarding P48H, the abundance fitness was -0.278 ± 0.055.

P48G: the abundance fitness is -0.284 ± 0.053.

In the case of P48D, the abundance fitness was -0.102 ± 0.05.

As for P48C, the abundance fitness is -0.815 ± 0.079.

On to P48L, for which the abundance fitness is -0.622 ± 0.042.

For the variant P48M, the abundance fitness is -0.363 ± 0.072.

As for P48W, the abundance fitness is -0.349 ± 0.051.

For the variant P48E, the abundance fitness was -0.042 ± 0.059.

Take P48I: the abundance fitness is -0.941 ± 0.12.

As for P48T, the abundance fitness is -0.27 ± 0.047.

Turning to P48K, the abundance fitness is -0.397 ± 0.051.

For the variant P48F, the abundance fitness is -0.717 ± 0.078.

Take C50V: the abundance fitness was -0.791 ± 0.044.

C50S: the abundance fitness is -0.622 ± 0.054.

With C50H, the abundance fitness is -0.286 ± 0.05.

C50K: the abundance fitness was -0.58 ± 0.1.

As for C50Y, the abundance fitness is -1.02 ± 0.13.

Turning to C50P, the abundance fitness was -0.755 ± 0.047.

C50I: the abundance fitness is -1.08 ± 0.12.

As for C50G, the abundance fitness was -0.727 ± 0.059.

With C50E, the abundance fitness is -0.708 ± 0.095.

In the case of C50Q, the abundance fitness was -0.769 ± 0.08.

C50D: the abundance fitness was -0.633 ± 0.05.

For C50L, the abundance fitness was -0.845 ± 0.043.

Turning to C50M, the abundance fitness is -0.986 ± 0.052.

With C50T, the abundance fitness is -0.78 ± 0.051.

Take C50F: the abundance fitness is -0.895 ± 0.056.

As to C50W, the abundance fitness is -1.11 ± 0.1.

With C50N, the abundance fitness was -0.46 ± 0.092.

For R49H, the abundance fitness is 0.047 ± 0.053.

Take R49L: the abundance fitness was -0.101 ± 0.044.

For the variant R49T, the abundance fitness was 0.043 ± 0.047.

Turning to R49S, the abundance fitness is -0.095 ± 0.047.

Regarding R49W, the abundance fitness is -0.132 ± 0.051.

R49G: the abundance fitness came to 0.069 ± 0.041.

As for R49A, the abundance fitness amounted to 0.019 ± 0.055.

R49I: the abundance fitness came to 0.016 ± 0.072.

For the variant R49N, the abundance fitness worked out at 0.04 ± 0.063.

Turning to R49M, the abundance fitness is -0.101 ± 0.054.

With R49D, the abundance fitness is 0.145 ± 0.055.

For R49Y, the abundance fitness is -0.201 ± 0.086.

With R49F, the abundance fitness is -0.089 ± 0.06.

Turning to R49V, the abundance fitness was 0.006 ± 0.051.

On to R49Q, for which the abundance fitness was 0.034 ± 0.043.

For R49E, the abundance fitness is -0.108 ± 0.079.

With R49P, the abundance fitness was -0.187 ± 0.049.

For the variant W45S, the abundance fitness was -0.443 ± 0.048.

Turning to W45T, the abundance fitness was -0.43 ± 0.047.

Take W45Y: the abundance fitness was -0.357 ± 0.053.

Regarding W45V, the abundance fitness was -0.431 ± 0.054.

Take C52W: the abundance fitness was -0.033 ± 0.14.

C52D: the abundance fitness was -0.218 ± 0.17.

C52M: the abundance fitness amounted to 0.433 ± 0.11.

In the case of C52P, the abundance fitness is -0.667 ± 0.34.

Take C52T: the abundance fitness stood at 0.288 ± 0.13.

In the case of C52I, the abundance fitness was -0.189 ± 0.18.

C52G: the abundance fitness turned out to be 0.294 ± 0.081.

With C52N, the abundance fitness was -0.161 ± 0.16.

Consider C52Q, for which the abundance fitness was determined as 0.145 ± 0.068.

On to C52F, for which the abundance fitness is -0.358 ± 0.23.

Consider C52V, for which the abundance fitness was determined as 0.032 ± 0.091.

Regarding C52H, the abundance fitness was found to be 0.096 ± 0.16.

For the variant C52Y, the abundance fitness was -0.019 ± 0.097.

Regarding C52S, the abundance fitness is -0.002 ± 0.11.

For C52L, the abundance fitness stood at 0 ± 0.11.

Take C52E: the abundance fitness came out at 0.489 ± 0.12.

C47V: the abundance fitness was -0.605 ± 0.055.

Consider C47P, for which the abundance fitness is -0.552 ± 0.043.

As for C47I, the abundance fitness was -0.697 ± 0.082.

C47H: the abundance fitness was -0.36 ± 0.052.

As to C47T, the abundance fitness was -0.732 ± 0.063.

For the variant C47S, the abundance fitness is -0.598 ± 0.056.

As to C47F, the abundance fitness was -0.803 ± 0.055.

For the variant C47K, the abundance fitness is -0.503 ± 0.074.

With C47L, the abundance fitness is -0.639 ± 0.047.

C47E: the abundance fitness is -0.606 ± 0.094.

Consider C47Q, for which the abundance fitness was -0.627 ± 0.074.

Consider C47N, for which the abundance fitness was -0.559 ± 0.087.

For C47Y, the abundance fitness was -0.78 ± 0.057.

Take C47W: the abundance fitness is -0.766 ± 0.056.

Consider C47A, for which the abundance fitness was -0.804 ± 0.074.

Regarding C47R, the abundance fitness is -0.664 ± 0.041.

Consider C47G, for which the abundance fitness is -0.652 ± 0.046.

On to T51S, for which the abundance fitness was found to be 0.013 ± 0.056.

Regarding T51P, the abundance fitness stood at 0.031 ± 0.046.

For the variant T51R, the abundance fitness is -0.073 ± 0.053.

Take T51H: the abundance fitness is -0.169 ± 0.08.

With T51D, the abundance fitness stood at 0.152 ± 0.083.

On to T51K, for which the abundance fitness was -0.051 ± 0.082.

For the variant T51E, the abundance fitness worked out at 0.074 ± 0.074.

As to T51W, the abundance fitness is -0.12 ± 0.06.

For T51Q, the abundance fitness is -0.03 ± 0.061.

As to T51N, the abundance fitness is 0.12 ± 0.072.

As for T51L, the abundance fitness is -0.003 ± 0.046.

T51C: the abundance fitness was -0.151 ± 0.076.

As for T51M, the abundance fitness is -0.097 ± 0.056.

Consider T51F, for which the abundance fitness was determined as 0.048 ± 0.077.

T51Y: the abundance fitness was -0.171 ± 0.072.

Regarding T51V, the abundance fitness is -0.048 ± 0.05.

On to T51G, for which the abundance fitness is -0.136 ± 0.042.
